Assay results: the nanobody polyreactivity screen of Harvey et al. (2022)

Assay: yeast display, Sf9 membrane polyspecificity reagent, FACS + sequencing; frameworks hold sequencing errors
Summary of the method: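 Genes from sorted yeast were amplified by colony PCR, read by MiSeq 2 × 250 sequencing and filtered on CDR length. These cells carried a synthetic nanobody library in Saccharomyces cerevisiae BJ5465 and were sorted by FACS into low and high (top ~1%) gates on anti-HA and streptavidin fluorescence. Polyreactivity is labelled according to the gate of origin.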

| Sequence | polyreactivity (PSR sort gate) |
| --- | --- |
| QVQLVESGGGLVQAGGSLRLSCAASGSTFDGNAMGWYRQAPGTERELVAAITSGGSTNYADSVKGRFTISRDNAKNTVYLQMNSLKPEDTAVYYCAADTVSFSILYDYWGQGTQVTVSS | low polyreactivity |
| QVQLVESGGGLVQAGGSLRLSCAASGSTFDGYAMGWYRQAPGKERELVAAITSSSTSTYYADSVKGRFTISRDNAKNTVYLQMYSLKPEDTAVYYCAAQYFSYISVYSFYTMGYWGQGTQVTVSS | low polyreactivity |
| QVQLVESGGGLVQAGGSLRLSCAASGSTFDHYAMGWYRPAPGKERELVAAISYSGSTTDYADSVKGRFTISRDNAKNTVYLQMNSLKPVDTAVYYFAASGDVIQSPMDYWGQGTQVTVSS | low polyreactivity |
| QVQLVESGGGLVQAGGSLRLSCAASGSTFDINAMGWYRQAPGKERELVAAITDSGGSTHYADSVKGRFTISRDNAKNTVSLQMNSLKPEDTAVYYCNADDYLVYAGSHYGYWGQGTQVTVSS | low polyreactivity |
| QVQLVESGGGLVQAGGSLRLSCAASGSTFDIYAMGCYRQAPGKERELVAAITFSGGSTYADSVKGRFTISRDNAKNTVYFQMNSLKPEDTAVYYCAVDGGEFSSYGYWGQGTQVTVSS | low polyreactivity |
| QVQLVESGGGLVQAGGSLRLSCAASGSTFDIYAMGWYRPAPGKERELVAVISGGDGSTYYADSVKGRFTISRDNAKNTVYLQMNSLKPEDTAVYYCAADYISPGYWDGEYDCWGQGTQVTVSS | low polyreactivity |
| QVQLVESGGGLVQAGGSLRLSCAASGSTFDIYAMGWYRQAPGKERELVAAISVSDVDTYYADSVKGRFTISRDNAKNTVYLQMNSLKPEDTAVYYCAAETPTHDEWGQGTQVTVSS | high polyreactivity |
| QVQLVESGGGLVQAGGSLRLSCAASGSTFDIYVMGWYRQAPGKEREFVAAITTTTGRTNYADSVKGRFTISRDYAKNTVYLQMNSLKPEDTAVYYCAAYVTWGKLWYGYWGQGTQVTVSS | high polyreactivity |
| QVQLVESGGGLVQAGGSLRLSCAASGSTFDKNTMGWYRQAPGKERELVAAISRSGGSTYYADSVKGRYTISRDNAKNTVYLQMNSLKPEDTAVYYCAAQSRYWTYDYWGQGTQVTVSS | high polyreactivity |
| QVQLVESGGGLVQAGGSLRLSCAASGSTFDKYAMGWYRQAPGKERELVAAISSGSSTSYADSVKGRFTISRDNAKNTVYLQMNSLKPEDTAVYYCAAEVAESIEDDYWGQGTQVTVSS | low polyreactivity |
| QVQLVESGGGLVQAGGSLRLSCAASGSTFDLYAMGWCRQAPGKEREWVAAITWSGDDTYYADSVKGRFTISRDNATNTVYLQMNSLKPEDTAVYYCAAAYAYWGQGTQVTVSS | low polyreactivity |
| QVQLVESGGGLVQAGGSLRLSCAASGSTFDLYAMGWYRQAPGKEREFVASISWRGTNTYYADSVKGRFTISRDNAKNTVYLQMISLKPEDTAVYYCYAVRGWTTRYDYWGQGTQVTVSS | high polyreactivity |
| QVQLVESGGGLVQAGGSLRLSCAASGSTFDNNGMGWYRQAPGKERELVASITFNVGSTYYADSVKGRFTISRDNAKNTVYLQMNSLKPEDTAVYYCAADDLNLSQALGYDYWGQGTQVTVSS | low polyreactivity |
| QVQLVESGGGLVQAGGSLRLSCAASGSTFDQNAMGWYRPAPGKERELVAAISGSGTRTYYADSVKGLFTISRDNAKKTVYLQMNSLKPEDTAVYYCRTGSGEYDYWGQGTQVTVSS | high polyreactivity |
| QVQLVESGGGLVQAGGSLRLSCAASGSTFDRYAMGWYRQAPGKERELVAAITRGGSTYYADSVKGRFTISRDNAKNTVYLQMNSLKPEDTAVYYCAARYRAYVKLTSYDWGQGTQVTVSS | high polyreactivity |
| QVQLVESGGGLVQAGGSLRLSCAASGSTFDSNVMGWYRQAPGKERELVAVINGSGSNTYYADSVKGRFTISRDNAKNTVYLQMNSLKPEDTAVYYCAVERSVYSYYYWGQGTQVTVSS | high polyreactivity |
| QVQLVESGGGLVQAGGSLRLSCAASGSTFDSYAMGWYRPAPGKERELVAAITDSGSSTYYADSVKGRFTISRDNAKNTVYLQMNSLKPEDTAVYYCATYDYHGWSYYRYDYWGQGTQVTVSS | low polyreactivity |
| QVQLVESGGGLVQAGGSLRLSCAASGSTFDSYAMGWYRQAPGKEREFVAAITWSGGRTYYADCVKGRFTISRDNAKNTVYLQMNSLKPEDTAVYDCSATDPWGWDYYYWGQGSQVTVSS | low polyreactivity |
| QVQLVESGGGLVQAGGSLRLSCAASGSTFDTNAMGWYRQAPGKERELVASISSAGSTNYADSVKGRFTISRDNAKNTVYLQMNSLKPEDTAVYYCAKYYGQFYPPTLGYWGQGTQVTVSS | low polyreactivity |
| QVQLVESGGGLVQAGGSLRLSCAASGSTFDTYAMGWSRPAPGKERELVAAITSGSSTNYADSVKGRFTISRDNAKNTVYLQMNSLKPEDTAVYYCAALGYNVSSRGYYYWGQGTQVTVSS | low polyreactivity |
| QVQLVESGGGLVQAGGSLRLSCAASGSTFDTYAMGWYRQAPGKERELVAAISVSGTSTSYADSVKGRFTISRDNAKNTVYLQMNSLKPEDTAVYYCNATDFSRNPGYARPEYDYWGQGTQVTVSS | low polyreactivity |
